The record followed here is paper PMC9236607, “TUBA1A tubulinopathy mutants disrupt neuron morphogenesis and override XMAP215/Stu2 regulation of microtubule dynamics” (eLife, 2022).

First the molecules themselves.
B1: purified budding yeast tubulin heterodimer, Tub1-WT (internal 6X-His) with Tub2 [S. cerevisiae] / GST-TOG1/2 (the two TOG domains of Stu2 fused to a GST tag, Stu2 1-590) [S. cerevisiae] (parent complex)
chain 1: MREVISINVGQAGCQIGNACWELYSLEHGIKPDGHLEDGLSKPKGGEEGFSTFFHETGYGKFVPRAIYVDLEPNVIDEVRNGPYKDLFHPEQLISGKEDAANNYARGHYTVGREILGDVLDRIRKLADQCDGLQGFLFTHSLGGGTGSGLGSLLLEELSAEYGKKSKLEFAVYPAPQVSTSVVEPYNTVLTTHTTLEHADCTFMVDNEAIYDMCKRNLDIPRPSFANLNNLIAQVVSSVTASLRFDGSLNVDLNEFQTNLVPYPRIHFPLVSYSPVLSKSKAFHESNSVSEITNACFEPGNQMVKCDPRDGKYMATCLLYRGDVVTRDVQRAVEQVKNKKTVQLVDWCPTGFKIGICYEPPTATPNSQLATVDRAVCMLSNTTSIAEAWKRIDRKFDLMYAKRAFVHWYVGEGMEEGEFTEAREDLAALERDYIEVGADSYAEEEEF
chain 2: MREIIHISTGQCGNQIGAAFWETICGEHGLDFNGTYHGHDDIQKERLNVYFNEASSGKWVPRSINVDLEPGTIDAVRNSAIGNLFRPDNYIFGQSSAGNVWAKGHYTEGAELVDSVMDVIRREAEGCDSLQGFQITHSLGGGTGSGMGTLLISKIREEFPDRMMATFSVLPSPKTSDTVVEPYNATLSVHQLVEHSDETFCIDNEALYDICQRTLKLNQPSYGDLNNLVSSVMSGVTTSLRYPGQLNSDLRKLAVNLVPFPRLHFFMVGYAPLTAIGSQSFRSLTVPELTQQMFDAKNMMAAADPRNGRYLTVAAFFRGKVSVKEVEDEMHKVQSKNSDYFVEWIPNNVQTAVCSVAPQGLDMAATFIANSTSIQELFKRVGDQFSAMFKRKAFLHWYTSEGMDELEFSEAESNMNDLVSEYQQYQEATVEDDEEVDENGDFGAPQNQDEPITENFE
chain 3: MSGEEEVDYTTLPLEERLTYKLWKARLEAYKELNQLFRNSVGDISRDDNIQIYWRDPTLFAQYITDSNVVAQEQAIVALNSLIDAFASSSLKNAHNITLISTWTPLLVEKGLTSSRATTKTQSMSCILSLCGLDTSITQSVELVIPFFEKKLPKLIAAAANCVYELMAAFGLTNVNVQTFLPELLKHVPQLAGHGDRNVRSQTMNLIVEIYKVTGNNSDLLEEILFKKLKPIQVKDLHKLFAKVGDEPSSSKMLFEWEKRELEKKRSQEEEARKRKSILSNDEGEYQIDKDGDTLMGMETDMPPSKQQSGVQIDTFSMLPEETILDKLPKDFQERITSSKWKDRVEALEEFWDSVLSQTKKLKSTSQNYSNLLGIYGHIIQKDANIQAVALAAQSVELICDKLKTPGFSKDYVSLVFTPLLDRTKEKKPSVIEAIRKALLTICKYYDPLASSGRNEDMLKDILEHMKHKTPQIRMECTQLFNASMKEEKDGYSTLQRYLKDEVVPIVIQIVNDTQPAIRTIGFESFAILIKIFGMNTFVKTLEHLDNLKRKKIEETVKTLPNFSIASGSTHSTIETNKQTGPMENKFLLK

In this assay the parent is B1. Briefly: in vitro binding assay: unbound tubulin in supernatant after GST-TOG1/2 incubation, α-tubulin western blot; highest GST-TOG1/2 concentration, est. ~5000 nM read from x axis; low constant tubulin concentration; n=3 experiments; parent: 14; read off a plot. (In general: A western blot detects proteins with antibodies after separation by electrophoresis.)
Consider chain 1 V410A, for which the screen value is ~85%. As to chain 1 V410I, the screen value is ~71%.
